{"source": "paper PMC5393062", "experiment_in_all_cases": "fluorescence polarization", "key": {"[1]": {"target": "pNOB8 ParA(K58E) (Sulfolobus NOB8H2, plasmid pNOB8) (UniProt O93708)", "conditions": "FP: 25 mM Tris-HCl pH 7.5, 100 mM NaCl, 1 nM 5'-fluorescein DNA, with ATP/AMPPNP, ADP or no nucleotide; temperature not stated. Crystals: 20% PEG 4000, 10% …"}, "[2]": {"target": "pNOB8 ParA (Sulfolobus NOB8H2, plasmid pNOB8) (UniProt O93708)", "conditions": "FP: 25 mM Tris-HCl pH 7.5, 100 mM NaCl, 1 nM 5'-fluorescein DNA, with ATP/AMPPNP, ADP or no nucleotide, temperature not stated. Crystals: 20% PEG 4000, 10% …"}, "[3]": {"target": "pNOB8 ParA(R52E-K221E) (Sulfolobus NOB8H2, plasmid pNOB8) (UniProt O93708)", "conditions": "FP: 25 mM Tris-HCl pH 7.5, 100 mM NaCl, 1 nM 5'-fluorescein DNA, with ATP/AMPPNP, ADP or no nucleotide; temperature not stated. Crystals: 20% PEG 4000, 10% …"}, "[4]": {"target": "pNOB8 ParA(R52E-K218E) (Sulfolobus NOB8H2, plasmid pNOB8) (UniProt O93708)", "conditions": "FP: 25 mM Tris-HCl pH 7.5, 100 mM NaCl, 1 nM 5'-fluorescein DNA, with ATP/AMPPNP, ADP or no nucleotide; temperature not stated. Crystals: 20% PEG 4000, 10% …"}, "[5]": {"target": "pNOB8 ParA(K270E) (Sulfolobus NOB8H2, plasmid pNOB8) (UniProt O93708)", "conditions": "FP: 25 mM Tris-HCl pH 7.5, 100 mM NaCl, 1 nM 5'-fluorescein DNA, with ATP/AMPPNP, ADP or no nucleotide; temperature not stated. Crystals: 20% PEG 4000, 10% …"}}}
{"sequence": "TGACGCCGGCGTCA (double strand) [14mer nsDNA, FP probe]", "values": [{"measurement": "Kd", "setting": "[1]", "result": 0.274, "unit": "µM"}, {"measurement": "Kd", "setting": "[2]; AMPPNP, stoichiometry ~1 ParA dimer to 2 duplexes at 1 uM DNA", "result": 0.116, "unit": "µM"}, {"measurement": "Kd", "setting": "[2]", "result": 0.12, "unit": "µM"}, {"measurement": "Kd", "setting": "[3]", "result": 5.93, "unit": "µM"}, {"measurement": "Kd", "setting": "[4]", "result": 3.19, "unit": "µM"}, {"measurement": "Kd", "setting": "[5]", "result": 0.3, "unit": "µM"}]}
